The values below come from US20220280633A1.

The data set concerns T1, fluorogenic substrate (R&D systems, cat no ES007), peptide YVADAPK between a 7-methoxycoumarin (Mca) group and a 2,4-dinitrophenyl (Dnp) group.
T1 sequence: YVADAPK

“commercial ACE-2 from Sino Biological (cat no 10108H08H20)”: the “enzymatic activity assay using a fluorogenic substrate” value is reported as “All four samples appeared to have similar levels of activity”.
